Measured values taken from the DeepSol protein solubility set.

experiment: soluble on expression in E. coli; label from the status in PepcDB or PDB records

Sequence | soluble on expression in E. coli
PVKPVAPGEQQKNWAHWGNTTHGDRFAALDQINKQNVNQLQVAWVAHTGDIPQSNGSGAEDQNTPLQIGDTLYVCTPYSKVLALDVDSGKEKWRYDSKSSSPNWQRCRGLGYYEDSQAQTAPAAGTQPAACSRRLFLPTIDARLIAIDADTGKLCESFGDRGIVDLSVGMGEVKAGYYQQTSTPLVAGNVVVVGGRVADNYSTGEPPGVVRAFDVHTGKLAWAWDPGNPALTGVPPEGQTYTRGTPNVWSAMSYDAKLNLIYLPTGNATPDFFGGERTALDDKYSSSIVAVDATTGQVRWHFQTTHHDLWDFDLPSQPLLYDLPDGKGGTTPVLVQTSKQGMIFMLNRETGEPVAKVEERPVPAGNVKGERYSPTQPYSVGMPMIGNQTLTESDMWGATPIDLLLCRIQFKEMRHQGVFTPPGEDRSLQFPGSLGGMNWGSVSLDPNNSLMFVNDMRLGLANYMVPRAKVAKDASGIEMGIVPMEGTPFGAMRERFLSPLGIPCQKPPFGTMSAVDLKTGKLVWQVPVGTVEDTGPLGIRMHMPIPIGMPTLGASLATQSGLLFFAGTQDFYLRAFDTANGKEIWKSRLPVGSQSGPMTYVSPKTGKQYIIINAGGARQSPDRGDYIIAYALPDHH | not soluble
PVTSISHEQLQQVHAEAGLTIALSTSVGDDLFYVDHVSSEPEYAYLAENRLRRSLLRTSAGWLLLADREQRDIWAYLNSRPVADADYIEQFLYALEALRATGVCAAPGVAVEHGDGVSVALRERGRTIATLGVVGVRETIIERRDELAKICLRHAEEWGFR | soluble
QAPEQRSIRDGILLLHELGALTDDTQADGSPQLTQIGKDLANIPVDPRMARMLVEANTLGCLHSVMVIVSALTIQDVRERPLEFQAQADQAHARFKDTT | not soluble
QDLLLSYKGKLKNDSIEGEFRQGRFGTMMSLYRGLDAAKPYRPQTPVPPFPYDVTDVKILHKTGGFTIAGTLTAPKDANKTKGTVILISGSGLQDRDETIFGHKPFAVLADQLTRHGYAVLRCDDRGFGESAGDASQATTDTLAGDIESELAYLRQHYPRLTDKVFLIGHSEGGIIAPMVARRVGGIAGLVLVGAPSVKGAEILLSQNAAMDEFATGQPQSQAKRAALEELIRQATAPGDTSDIRTRIESYCRSNASVLFPQAMTDEMKEQGIKLMTEQLYTPWMRHFLTYDPAPLLDVTSGEGSHPLPPTMAIYGGRDKQVLHEVNMSKMKSLLGIETGNTTNKVVYLPEVNHIMQPAEFGTPDEYAFLNRTVDTELMEIVCSFLDSL | not soluble
QETEDPACCSPIVPRNEWKALASECAQHLSLPLRYVVVSHTAGSSCNTPASCQQQARNVQHYHMKTLGWCDVGYNFLIGEDGLVYEGRGWNFTGAHSGHLWNPMSIGISFMGNYMDRVPTPQAIRAAQGLLACGVAQGALRSNYVLKGHRDVQRTLSPGNQLYHLIQNWPHYRSP | soluble
QFLSGQLSIKLWFDKVGHQLIVTILGAKDLPSREDGRPRNPYVKIYFLPDRSDKNKRRTKTVKKTLEPKWNQTFIYSPVHRREFRERMLEITLWDQARVREEESEFLGEILIELETALLDDEPHWYKLQ | soluble
QGEIRVGPSHQAKLPDLQPFPSPDGDTVTQHEELVWMPGVNDCDLLMYLRAARSMAAFAGMCDGGSTEDGCVAASRDDTTLNALNTLHESGYDAGKALQRLVKKPVPKLIEKCWTEDEVKRFVKGLRQYGKNFFRIRKELLPNKETGELITFYYYWKKT | not soluble
QKNPDSYNGAVRENYTWSQDYTDLEVRVPVPKHVVKGKQVSVALSSSSIRVAMLEENGERVLMEGKLTHKINTESSLWSLEPGKCVLVNLSKVGEYWWNAILEGEEPIDID | soluble
QKRAWITAPVALREGEDLSKKNPIAKIHSDLAEERGLKITYKYTGKGITEPPFGIFVFNKDTGELNVTSILDREETPFFLLTGYALDARGNNVEKPLELRIKVLDINDNEPVFTQD | soluble
QLNPYLRLKVRRDHIIDDALVRLEMIAMENPADLKKQLYVEFEGEQGVDEGGVSKEFFQLVVEEIFNPDIGMFTYDESTKLFWFNPSSFETEGQFTLIGIVLGLAIYNNCILDVHFPMVVYRKLMGKKGTFRDLGDSHPVLYQSLKDLLEYEGNVEDDMMITFQISQTDLFGNPMMYDLKENGDKIPITNENRKEFVNLYSDYILNKSVEKQFKAFRRGFHMVTNESPLKYLFRPEEIELLICGSRNLDFQALEETTEYDGGYTRDSVLIREFWEIVHSFTDEQKRLFLQFTTGTDRAPVGGLGKLKMIIAKNGPDTERLPTSHTCFNVLLLPEYSSKEKLKERLLKAITYAKGFGML | soluble
QMNYEEVIKKYRGEENFDHAAYDWRLHSGVTPVKDQKNCGSCWAFSSIGSVESQYAIRKNKLITLSEQELVDCSFKNYGCNGGLINNAFEDMIELGGICPDGDYPYVSDAPNLCNIDRCTEKYGIKNYLSVPDNKLKEALRFLGPISISVAVSDDFAFYKEGIFDGECGDQLNHAVMLVGFGMKEIVNPLTKKGEKHYYYIIKNSWGQQWGERGFINIETDESGLMRKCGLGTDAFIPLIE | soluble
QPAQSGAFLVDQSQLTQSSILIGHQGGQLSNPDYPELSVMNGVINGFGGRLFNEIRSRQGLAYSVYGVWSPRYDYDGQFIAGGSTRTEATVPFITAMKGEIKRLQTELITPAELAYAKDSILNSFVFNFEDPGQTLSRLMRYEYYGYPEDFIFQYQREVEATTIEDVQRVAQTYLKPEQLTVLVVGN | not soluble
QRVKRLLSITNDKHDEYLTEMVPLLVEFAKDECHNPFIDKDGNESIPSGVLIFVAKAAQFYMTNAGLTGRSMDTVSYNFATEIPSTILKKLNPYRKMAR | soluble
QSFRAIQLSDLHIGGLIEEHYMEALGERINALKPDMIFLTGDITDASCEQIRTPLEKLKALQAPLGIYFVSGNHEFFHGIQKTMDFLREMGIVVLENDSRTIEGLVNIAGVHDLFGRRIGFLEPDLEQALYGIDPSLPTILLAHQPKFAKEALGYPVDLILSGHTHGGQIAPFGLLVR | not soluble
QSIEKLYAEFETEPIASASIAQVHKARLHSGEQVAVKVLRPNLLPVIEQDLSLMRFGAGWVERLFADGKRLKPREVVAEFDKYLHDELDLMREAANASQLGRNFQNSDMLIVPKVFYDYC | not soluble
QSQGGGSVTKKRKLESSESRSSFSQHARTSGRVAVEEVDEEGKFVRLRNKSNEDQSMGNWQIRRQNGDDPLMTYRFPPKFTLKAGQVVTIWASGAGATHSPPTDLVWKAQNTWGCGSSLRTALINSTGEEVAMRKLVR | soluble
QSTSNKTLDTLIVTGTRISDRTAAESSSPIDIISQESLEATGTTELATALSRMVPSLNFPRPAVSDGNDAVRPAQLRGLSPDQVLVLVNGKRYHTTALVNLNEIQGRGSAPADLNTIPIAAIERIEVLRDGASAQYGSDAIAGVINIVLKGAGKGGSITGHYGEYKVKDGKQYELSGDTGLSFAGTGKVHFAAQGGHEDQTNRAVPYNDGIIRQRYGDPKINQGAFSYNGSYSPTEGVTFYSFGMVSRRKVLSNGFYRWADDARNRPEIYPEGFLPQIYNVANDTSWVSGMKASTAWGLNIDLSYNYGNNQLTFDVRNSLNNSLGLSSPTAFYAGGLEITQHVLNADFNKSVDWGHLAYPLNLAFGVEWRGEIFNEYQGEEASYINGGVRSSAGTLLPGAQVFSGFKPSDSGGFDRNSHSMYIDLEGNLTEKFSAGVAGRYEHYSDFSNTR | not soluble
QTMGGDDVKVVQYNQEKLVQTRMSVADNGWIYVMTHSGYDTGNSNVKIFRSKDQGATYQKLRDWDPSDDYQFQDFDIVVTGKNESDIKIWSVELMNKPGGYKSRVAVFSRDANAQNAKLVYKEDFSNVQLYDVDIASNYRSPSSLNNGGNPFALAFAYTGFNNTHKISFVDYVFSLNGGQNFNKNLLFSQDGEKKIDKVDLSLGSTSESMGHNAWPLMGVVFEMNKQGGKSDIGFLSNFVDNDPEFQWSGPIKVSESDMSFSPKIQMLLDEDNNTINGESCHNFMITYSDYDSEYSDWDIRYVYPKKSFKYEKGKTPTMDDLVEAFLTASYQSETNSGLGYDKNANHYLITYAKKEENGTNTLKYRWANYDKIHNKDLWSDTFTYTSSANALYTPQVDINPTKGLVCWSWVEYLPGKRIVWSDTQWTHANGVEDIVMQEGSMKLYPNPAQE | not soluble
QTQTVAIIGMGSRGLSILEQLIGMSRHADQQPLQIEVFDPQPPGSGLHSAQQPDYLMLNTMAGQLSAFSSAFPACEPAGWTFLQWCGAQDVRLDERGHVSTNGLGRPVAFGDFVPRALLGRYLQHSYRFLLQQCPAHVQVRHYAERVIKCRSRSDAPGFRLRSLTREMNVDALFLTVGHASSATELQDVGATVAIEGLGLTAMDTLASLTQGRGGRYVRDAGFAGWRYLPSGREPRVFMYSRSGLPFHARPHWYPTRHAALPRLFFTAVAIGDLRKQNGGGQLDFQADVLPLIKDEMRAVFYQTKVRLDAPRQLEAVQRTLREAVARPALFARLAEQWGEFDPEQWLTTQRWTGEAGTYGQWFVEWIKRDLALSRLGTAHSPIRQALEVWRDCRDLLRLVADRNGLTESSTLAFYDTWAGLGNRLVGGPQKERHEDLLALIDAGVVTVLAPMSDAQQADSRFDSVMAARVAPSGLSGNRSALLDDLREQGL | not soluble
QVEVIVMMHGRSTATSMVETVQELLSIESGIALDMPLTVEVKAMYEKLKQTVVKLNPVKGVLILSDMGSLTSFGNILTEELGIRTKTVTMVSTPVVLEAMRKASLGRGLEDIYQSCEQLFENKYKAHVLRAKP | not soluble
QVQLQQSGPELVKPGALVKISCKASGYTFTNYDIHWVKQRPGQGLEWIGWIYPGDGSTKYNEKFKGKATLTADKSSSTAYMHLSSLTSEKSAVYFCAREWAYWGQGTLVTVSAAKTTAPSVYPLAPGCGDTTGSSVTLGCLVKGYFPEPVTLTWNSGSLSSGVHTFPAVLQSDLYTLSSSVTVTSSTWPSQSITCNVAHPASSTKVDKKIEPRGPTIKPC | soluble
QYSLLHVSDLFFLAQQAMPGVQVLDALTGKPVEGASVDASMRYSIDRSVHTLSPTDRYGRIDLPKSYNRFFPYTDGDRSYPVVSAYTYKQDQVDLSKKNERKYIVSTDRAIYRPGQKVHFFGQCDRIGYAVEDARAIGGSEVEVVLEDANSKEIGRLLCQADEMGRFSGSFDLPTGILNGLFGLRVGGDTYPFSVEEYKRPTFEVGLRSPDAAYAMGDTLRIRGEAKTFTGIGMRGATVNYRLSLTPYTRRWWGRPVADRVVQTGEAVVDES | not soluble
RAGYWEWNVENGTILIDRQWAVISGYNSADFDMLTMEQWRELCHPADLGVVTKSIEELLDGSMERLELELRVRHKNGEWIRVLDCGKVTGRSK | not soluble
RAKKETTMTDVRIQALHFDATDQLKDFVQKKISKLNRLSDGITGAEVVLKLVKPETVQNKEASIRLYIPGDDLFAEKIADTFEEAIDLTVDALKRQIEKRKEQRK | not soluble
RALIGRLPDGRADLLENFAAGPGLAQRFGERYPEHAGRDLRFIMELYHAGDTHARDYITATLAAAGETIAGFASAIDVDAIIIGGGVGNIGDAIIKPFAHGFAAHAIPPLDTIPIRQAQLGTDAPIVGAAHLGHSAIE | not soluble
RAPDLAGVPDCLVIVGGSMAAVKAPTALRRLREGGASTAVIATRAALAFITPLSLATAGNCEVATDETWFAPQPIAQHLSLARARVTVVLGASAELLAAAAHGHADTLATATLLSAEGQVLWVPAMNERMWLHPAVQANAERLRGWGHLFLGPETGAFGTPGEGSGTGRMAEPEAIAARALALLNEQDAEAEAAPQDLAGLKVV | not soluble
